Measurements published in patent US20030032582A1.

Key:
Test in all cases: cell-based or functional assay
[1] = target: TCR Vβ5 (human)
[2] = target: TCR Vβ8 (human)
[3] = target: TCR Vβ2 (human)

For H-TSST1 (ligand), the CD3^+ Blasts Binding Anti-Vβ (%) [1] was 4.5%, the CD3^+ Blasts Binding Anti-Vβ, fold difference versus unstimulated controls [1] was 2 fold and the CD3^+ Lymphocytes Binding Anti-Vβ (%) [1] was 2%. It also gave a CD3^+ Lymphocytes Binding Anti-Vβ, fold difference versus unstimulated controls [1] of 0.9 fold, a CD3^+ Blasts Binding Anti-Vβ (%) [2] of 4.6% and a CD3^+ Blasts Binding Anti-Vβ, fold difference versus unstimulated controls [2] of 1.1 fold. It also gave a CD3^+ Lymphocytes Binding Anti-Vβ (%) [2] of 4.1%, a CD3^+ Lymphocytes Binding Anti-Vβ, fold difference versus unstimulated controls [2] of 1 fold and a CD3^+ Blasts Binding Anti-Vβ (%) [3] of 33%. For the same substance, the CD3^+ Blasts Binding Anti-Vβ, fold difference versus unstimulated controls [3] was 3.4 fold, the CD3^+ Lymphocytes Binding Anti-Vβ (%) [3] was 5.1% and the CD3^+ Lymphocytes Binding Anti-Vβ, fold difference versus unstimulated controls [3] was 0.5 fold.
